Experimental data: the supplement of paper PMC9732359
± gives the uncertainty stated by the source.

Assay: protein stability index of a GFP-peptide fusion (yeast GPS) (PSI 1-4); higher = more stable; sorted into four equal gates, so the index is relative within each strain
Procedure, shortened: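 Tiled 17-residue peptides from yeast proteins were fused downstream of GFP on a plasmid that also expresses Cherry, and the pooled library was carried in yeast. Mid-log cultures grown in leucine-free medium were sorted into four equal gates by GFP/Cherry fluorescence ratio. Plasmids from each gate were PCR-amplified and Illumina-sequenced, and reads were assigned to strains by barcodes. Each peptide's protein stability index is the sum, over gates, of the gate's read frequency multiplied by its gate number.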

Sequence	protein stability index (doa10∆)	protein stability index (pdr5∆)	protein stability index (san1∆)	protein stability index (ubr1∆)
CRVDFKNPHDIIEGINA [RPL12A]	2.19 ± 0.07	2.45 ± 0.072	1.83 ± 0.12	2.43 ± 0.05
CSKSIPKDKAIKRMAIR [RPS26A]	2.8 ± 0.069	2.96 ± 0.073	2.73 ± 0.065	2.85 ± 0.046
CSNNKNSIKNVPPILII [SSN2]	2.39 ± 0.16	2.28 ± 0.098	2.52 ± 0.17	1.5 ± 0.085
CSSATVPKHMLDKLDEI [AAR2]	2.79 ± 0.069	3.05 ± 0.088	2.98 ± 0.08	3.2 ± 0.067
CVHMVYEYAEHDLLQII [SSN3]	2.26 ± 0.086	2.21 ± 0.089	2.12 ± 0.11	2.48 ± 0.08
CYAPRPSAGPHKLRESL [RPS4A]	2.78 ± 0.083	3.12 ± 0.091	2.87 ± 0.11	3.07 ± 0.072
CYPQFAERDSQGGFYKQ [UBP6]	3.31 ± 0.065	3.28 ± 0.064	3.12 ± 0.058	3.21 ± 0.044
DAAAEEEKEEEAAEESD [RPP1B]	3.19 ± 0.13	3.25 ± 0.13	3.04 ± 0.1	3.29 ± 0.073
DAAEEEKEEEAKEESDD [RPP2B]	2.88 ± 0.3	3.22 ± 0.14	3.09 ± 0.3	3.41 ± 0.078
DAGKIDKHLYHVLYKES [RPL19A]	3.25 ± 0.24	3.12 ± 0.2	2.7 ± 0.091	2.89 ± 0.083
DAGVTFNKEQLNKFKKA [ECM29]	1.83 ± 0.053	2.13 ± 0.11	1.55 ± 0.14	2.36 ± 0.059
DAIAVTKGHGFEGVTHR [RPL3]	3.06 ± 0.11	3.19 ± 0.11	3.37 ± 0.1	3.36 ± 0.077
DAKTSYPNEVLKFNHGN [REC8]	2.78 ± 0.052	2.95 ± 0.072	3.02 ± 0.058	2.95 ± 0.065
DALEMQWRYLYDTQLKV [ARP7]	1.75 ± 0.053	1.55 ± 0.046	1.41 ± 0.088	1.53 ± 0.05
DANGVSLFELIVPIFQL [YJL039C/NUP192]	2.37 ± 0.053	2.08 ± 0.049	2.25 ± 0.062	2.14 ± 0.032
DANLLEEGETSRPLKKV [SWI3]	3.23 ± 0.12	3.45 ± 0.16	2.95 ± 0.082	2.99 ± 0.15
DASTPLRSTENGIVDQV [RPB2]	2.94 ± 0.12	3.33 ± 0.1	3.34 ± 0.06	3.47 ± 0.092
DAVEGVSECIILGQTMS [RPO31]	1.7 ± 0.21	1.46 ± 0.077	1.45 ± 0.12	1.56 ± 0.13
DAYYDLELRNSVMDDIL [PRP8]	2.98 ± 0.055	3.04 ± 0.044	2.93 ± 0.049	3.09 ± 0.036
DDDDYGDEEDPNEEAAF [RPC31]		3.38 ± 0.28		
DDDDYNAEKYFNNGDDD [RPC31]	3.01 ± 0.12	3.13 ± 0.16	3.06 ± 0.082	3.19 ± 0.07
DDEHNPTIVGGLYYQRP [AAR2]	2.66 ± 0.053	2.56 ± 0.039	2.62 ± 0.036	2.96 ± 0.04
DDIYDISLLKNRRKQSF [RPN4]	2.91 ± 0.11	3.08 ± 0.12	3.13 ± 0.12	3.1 ± 0.14
DDKDCTIKISTNDDSIK [RGR1]	2.89 ± 0.068	3.15 ± 0.067	2.98 ± 0.052	2.96 ± 0.057
DDLIHFTLKQWNRLTIS [COR1]	1.3 ± 0.052	1.34 ± 0.041	1.27 ± 0.066	1.33 ± 0.043
DDMDIDEVNDRSDISDS [PCI8]	3.22 ± 0.12	3.1 ± 0.1	3.26 ± 0.048	3.02 ± 0.085
DDPFMTKSGATTSEKQE [GAL11]	2.97 ± 0.18	3.26 ± 0.13	2.82 ± 0.23	

Sequence	protein stability index (doa10∆)	protein stability index (pdr5∆)	protein stability index (san1∆)	protein stability index (ubr1∆)
DDTAANNGDKDHLKLVS [YIL149C/MLP2]	3.25 ± 0.12	3.35 ± 0.11	2.81 ± 0.12	3.2 ± 0.087
DDVISNAGTNDNSFNEL [MCD1]	3.31 ± 0.15	3.37 ± 0.12	3.31 ± 0.06	3.44 ± 0.084
DDYSNEDNEMLEDLFSY [YJR042W/NUP85]	2.01 ± 0.15	1.94 ± 0.15	1.76 ± 0.18	1.66 ± 0.073
DEDIITIFKYLTDKDAF [CDC53]	2.91 ± 0.14	3.15 ± 0.11	3.21 ± 0.061	3.19 ± 0.059
DEGHVLKLENLHVVSKS [SIN4]	3.14 ± 0.11	2.65 ± 0.16	2.73 ± 0.19	3.02 ± 0.13
DEKEKQLAVANEIIRSL [SIR4]	2.3 ± 0.048	2.25 ± 0.047	2.31 ± 0.069	1.91 ± 0.047
DEKLKTEKLKNDKSEVL [SRB8]	3.09 ± 0.3	3.74 ± 0.21	3.24 ± 0.18	3.33 ± 0.22
DELCKLVTCEGSEEKAF [SRP54]	2.92 ± 0.18	2.3 ± 0.18	1.95 ± 0.18	2.25 ± 0.13
DELERILKELSNLETLY [RPB4]	3.21 ± 0.092	3.33 ± 0.082	3.21 ± 0.072	3.1 ± 0.12
DELILEAKERYTDRDQD [NNF1]		3.68 ± 0.27	3.58 ± 0.1	3.52 ± 0.2
DELSSKELVECHLYSQR [NNF1]	2.05 ± 0.056	2.33 ± 0.052	2.13 ± 0.094	2 ± 0.04
DESDTISFRSNLLKNFI [SNF6]	2.04 ± 0.084	2.55 ± 0.12	2.58 ± 0.15	2.41 ± 0.079
DESLIRELYKYVRKHDP [PRP28]	3.4 ± 0.14	3.48 ± 0.16	2.83 ± 0.17	3.09 ± 0.12
DESSGTSRIDEEKPGLI [SMC4]	2.89 ± 0.058	3.12 ± 0.047	2.94 ± 0.05	3.08 ± 0.065
DEVDAIGGRRFSEGTSA [RPT4]	2.72 ± 0.086	2.67 ± 0.083	2.48 ± 0.1	2.35 ± 0.09
DFDNIEFKKIPRVKGFK [SEC65]	2.84 ± 0.14	3.11 ± 0.13	2.82 ± 0.078	3.13 ± 0.088
DFNEIVQYLSGAHGNSD [POP3]	1.24 ± 0.096	1.22 ± 0.14	1.18 ± 0.21	1.28 ± 0.11
DGGYNAQLAKAKTELNE [SMC2]	2.64 ± 0.092	1.94 ± 0.058	1.44 ± 0.072	1.5 ± 0.038
DGKKHSVFYTILRDYGP [RPO31]	2.86 ± 0.072	2.95 ± 0.067	3.19 ± 0.054	2.87 ± 0.06
DGMYSESKLSLETLFNR [FAS2]	3.39 ± 0.075	3.25 ± 0.09	3.32 ± 0.046	3.33 ± 0.048
DGRSFDQFRDVEITFGK [RRP45]	3.27 ± 0.092	3.3 ± 0.058	3.54 ± 0.077	3.21 ± 0.057
DHINGSGKRKPTKAAQR [GAL11]	2.3 ± 0.14	2.81 ± 0.094	3.1 ± 0.16	3.17 ± 0.1
DIDAVNGAVGKREGKTR [ISW2]	2.94 ± 0.13	3.47 ± 0.11	2.94 ± 0.1	3.4 ± 0.071
DIETQLCSMLQEASQVT [MED11]	2.73 ± 0.1	2.73 ± 0.11	2.32 ± 0.11	2.44 ± 0.074
DIGKEMSLRHFGHLMHY [RPN1]	1.26 ± 0.049	1.25 ± 0.041	1.23 ± 0.074	1.08 ± 0.037
DIIVAIKIFELKLPADA [IRR1]	1.54 ± 0.078	1.21 ± 0.071	1.59 ± 0.14	1.83 ± 0.052
DINQAKDFIENVNNRFD [BRN1]	3.25 ± 0.12	3.23 ± 0.086	3.3 ± 0.067	3.08 ± 0.056
